Test results: patent US12797409, “Heparan sulfate mimetics to improve glucose clearance” (THE REGENTS OF THE UNIVERSITY OF CALIFORNIA)

Experiments:
[1] = molecular target: T1, Alpl (alkaline phosphatase) (Mus musculus, UniProt P09242 P09242:18-501); assay: flow; biotinylated aptamer alone on Ext1-/- mouse ES cells; cell-surface binding; settings: tags: endogenous on Ext1-/- mouse embryonic stem cells; chain copies: 2; G4
T1 sequence: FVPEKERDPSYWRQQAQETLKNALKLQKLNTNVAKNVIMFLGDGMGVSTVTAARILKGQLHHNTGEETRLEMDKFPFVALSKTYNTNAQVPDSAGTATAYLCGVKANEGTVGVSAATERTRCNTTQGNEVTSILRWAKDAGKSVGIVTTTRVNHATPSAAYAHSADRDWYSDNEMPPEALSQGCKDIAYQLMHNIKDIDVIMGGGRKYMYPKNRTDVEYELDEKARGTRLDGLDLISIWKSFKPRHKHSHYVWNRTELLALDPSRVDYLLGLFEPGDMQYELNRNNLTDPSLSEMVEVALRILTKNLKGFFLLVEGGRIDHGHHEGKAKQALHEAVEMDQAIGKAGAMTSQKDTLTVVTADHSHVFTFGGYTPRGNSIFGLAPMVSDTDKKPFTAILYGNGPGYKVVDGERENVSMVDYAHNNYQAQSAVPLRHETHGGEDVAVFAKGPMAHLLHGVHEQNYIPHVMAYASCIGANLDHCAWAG

[2] = molecular target: T1, Alpl (alkaline phosphatase); assay: flow; Ext1-/- mouse ES cells, 40 min in suspension, 0-200 nM; binding significantly reduced after 6 days of neural differentiation; settings: tags: endogenous on Ext1-/- mouse embryonic stem cells; chain copies: 2; label: AF488 (on streptavidin); G4

Binder	EC50 [1]	EC50 [2]
AGGTCAGATGAGGAGGGGGACTTAGGACTGGGTTTATGACCTATGCGTG (ssDNA, 5'-biotin) [Aptamer 19S]	~107 nM	
AGGTCAGATGAGGAGGGGGACTTAGGACTGGGTTTATGACCTATGCGTG (ssDNA, 5'-biotin, bound to streptavidin carrying biotinylated heparin (1:1:1)) [Hep-SA-19S (heparin-streptavidin-aptamer 19S chimera)]		70 nM
